Assay results taken from the supplement of paper PMC9732359.
± gives the uncertainty stated by the source.

Assay: protein stability index of a GFP-peptide fusion (yeast GPS) (PSI 1-4); higher = more stable; sorted into four equal gates, so the index is relative within each strain
Method in brief: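 For each peptide, the protein stability index sums the read frequency in every gate after multiplying it by the gate number. Read frequencies came from plasmids that were PCR-amplified from each gate and Illumina-sequenced, with reads assigned to strains by barcodes. The gates were four equal bins of GFP/Cherry fluorescence ratio applied to mid-log yeast in leucine-free medium carrying a pooled library of tiled 17-residue yeast protein peptides fused downstream of GFP on a Cherry-expressing plasmid.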

| Sequence | protein stability index (doa10∆) | protein stability index (pdr5∆) | protein stability index (san1∆) | protein stability index (ubr1∆) |
| --- | --- | --- | --- | --- |
| KFNNGVVIAADTRSTQG [PUP1] | 1.6 ± 0.066 | 2.4 ± 0.13 | 2.2 ± 0.2 | 2.7 ± 0.095 |
| IPAAGNNRSVSMQTIAE [SRB5] | 3.09 ± 0.078 | 3.12 ± 0.087 | 3.22 ± 0.081 | 3.3 ± 0.07 |
| MMCDFGTGNNNKLNFIV [DIB1] | 1.13 ± 0.084 | 1.22 ± 0.048 | 1.96 ± 0.15 | 1.6 ± 0.061 |
| VPTIGVVNSNFAKEHNA [YJR042W/NUP85] | 2.51 ± 0.072 | 2.61 ± 0.075 | 2.59 ± 0.058 | 2.54 ± 0.034 |
| AINLMGVKNNLLTPKSG [RPO31] | 3.11 ± 0.13 | 2.76 ± 0.12 | 2.76 ± 0.13 | 2.63 ± 0.11 |
| PEGRLYQVEYAFKATNQ [SCL1] | 2.65 ± 0.086 | 2.88 ± 0.067 | 1.78 ± 0.1 | 2.32 ± 0.062 |
| RGKKGLKKKVVDPFTRK [RPS1B] | 3.73 ± 0.15 | 3.34 ± 0.082 | 3.35 ± 0.074 | 3.27 ± 0.088 |
| VPVIESAGFETDLRLST [SNU114] | 3.14 ± 0.21 | 3.12 ± 0.23 | – | 3.17 ± 0.14 |
| STIEKDMKEYDSDKGSK [SMC2] | 3.25 ± 0.1 | 3.44 ± 0.071 | 3.37 ± 0.056 | 3.44 ± 0.075 |
| EPHAVSLAWSADGQTLF [ASC1] | 2.85 ± 0.12 | 3.06 ± 0.14 | – | 2.79 ± 0.26 |
| DLNHVTEELQTQYATSQ [SMC2] | 3.11 ± 0.19 | 3.17 ± 0.12 | 3.16 ± 0.1 | 3.44 ± 0.2 |
| KLLKVCLTMFEDRNESV [ECM29] | 2.41 ± 0.14 | 1.99 ± 0.27 | 2.58 ± 0.078 | 2.66 ± 0.16 |
| DVLKENNDADKGRSYAY [RIP1] | 3.48 ± 0.13 | 3.5 ± 0.15 | 3.25 ± 0.092 | 3.03 ± 0.26 |
| NKNQLLKRNRIRNARSI [POP1] | 2.93 ± 0.071 | 3.1 ± 0.071 | 2.84 ± 0.059 | 3 ± 0.055 |
| TNVRLYSLLLASKGIDR [ECM29] | 2.13 ± 0.048 | 2.79 ± 0.087 | 3.48 ± 0.088 | 3.33 ± 0.069 |
| AIFPYQDPIFGSVLLTL [ECM29] | 1.69 ± 0.045 | 1.84 ± 0.057 | 1.29 ± 0.12 | 1.45 ± 0.044 |
| DYVVAPGVNREINSEMC [GRR1] | – | 3.18 ± 0.2 | 3.32 ± 0.082 | 3.13 ± 0.064 |
| VSFNDSQSMVTNKENNI [YIL149C/MLP2] | 2.96 ± 0.057 | 3.3 ± 0.076 | 3.02 ± 0.057 | 3.16 ± 0.046 |
| DTSNWELSDSWRAHDSS [YGL100W/SEH1] | 3.29 ± 0.068 | 3.37 ± 0.058 | 3.4 ± 0.036 | 3.31 ± 0.037 |
| FAGEAGDTVQFAEYIQA [PRE1] | 1.72 ± 0.089 | 1.74 ± 0.094 | 1.75 ± 0.13 | 2.09 ± 0.054 |
| SYDFLPLSNIKALLFFN [RPN12] | 2.14 ± 0.047 | 1.96 ± 0.048 | 1.42 ± 0.08 | 1.82 ± 0.044 |
| KWPEYVRVQRQKKILSI [RPL8A] | 1.2 ± 0.06 | 1.5 ± 0.055 | 1.15 ± 0.098 | 1.23 ± 0.038 |
| RFEKAVKHVFGKTIVVK [SMC3] | 2.76 ± 0.21 | 3.58 ± 0.2 | – | 3.5 ± 0.16 |
| SMFLRIDYSNSQIRLYA [RGR1] | 2.9 ± 0.076 | 2.44 ± 0.066 | 2.4 ± 0.068 | 2.44 ± 0.043 |
| AYSPKQDEQKHNENENS [RPO21] | 2.65 ± 0.065 | 2.49 ± 0.072 | 2.57 ± 0.09 | 2.68 ± 0.061 |
| SILPTRDDLFVRNLQGI [NUT1] | 1.69 ± 0.094 | 2.19 ± 0.11 | 2.05 ± 0.15 | 1.56 ± 0.058 |

| Sequence | protein stability index (doa10∆) | protein stability index (pdr5∆) | protein stability index (san1∆) | protein stability index (ubr1∆) |
| --- | --- | --- | --- | --- |
| ANVELTPSNIRSLCEVL [RPC34] | 1.32 ± 0.053 | 1.68 ± 0.064 | 1.69 ± 0.078 | 2.02 ± 0.07 |
| QEAIQQNRRLAFEELEG [PRP8] | 2.24 ± 0.12 | 2.62 ± 0.28 | 2.74 ± 0.24 | 2.75 ± 0.12 |
| SDGEDGHIPWHILAVKK [SSN2] | 3.02 ± 0.11 | 2.97 ± 0.15 | 3.23 ± 0.1 | 3.16 ± 0.15 |
| YQEDIFVSESPSFVKSG [ISW2] | 2.85 ± 0.098 | 2.47 ± 0.077 | 2.48 ± 0.13 | 2.73 ± 0.045 |
| YQKEYETAERNIIQAKR [RPL7A] | 2.81 ± 0.25 | 2.75 ± 0.14 | 1.94 ± 0.16 | – |
| FSHSLTTILSFSSPAAL [NUT1] | 1.46 ± 0.031 | 1.38 ± 0.029 | 1.35 ± 0.063 | 1.32 ± 0.026 |
| GLEVGPVVQVGIFIKIL [IRR1] | 2.38 ± 0.068 | 2.25 ± 0.056 | 2.11 ± 0.15 | 2.47 ± 0.059 |
| AEVNGGDDEATEIISTL [BRR2] | 3.33 ± 0.094 | 3.1 ± 0.13 | 3.43 ± 0.095 | 3.11 ± 0.21 |
| NEEINKKSLEEDDEFED [SEM1] | – | 3.33 ± 0.11 | 2.9 ± 0.25 | – |
| LGNTVSTQPSFAWSKPS [YGR119C/NUP57] | 2.62 ± 0.067 | 2.84 ± 0.056 | 2.85 ± 0.077 | 2.25 ± 0.035 |
| SVFGFRTQFGGGKSVGF [RPS24A] | 2.56 ± 0.13 | 2.23 ± 0.076 | 3.31 ± 0.076 | 2.77 ± 0.088 |
| ANNGAAFSPLTTTRIQS [MED2] | 2.67 ± 0.081 | 2.91 ± 0.06 | 2.65 ± 0.066 | 2.66 ± 0.044 |
| TGYPDEPPAGVALPPGS [CYT1] | 2.84 ± 0.13 | 2.92 ± 0.11 | 2.65 ± 0.11 | 2.95 ± 0.067 |
| DSDMLTKSHNTVQSWLC [NUT1] | 2.53 ± 0.18 | 2.63 ± 0.22 | – | 2.87 ± 0.078 |
| ISTAKAWGALITTFVKR [YML103C/NUP188] | 1.82 ± 0.051 | 2.22 ± 0.051 | 1.64 ± 0.063 | 1.66 ± 0.058 |
| KDLQENLLVLRGKNEII [RPO21] | 1.31 ± 0.077 | 1.52 ± 0.056 | 1.6 ± 0.12 | 1.58 ± 0.071 |
| TALDAEGAARGTSVYLV [DIS3] | 2.24 ± 0.13 | 1.58 ± 0.082 | 2.47 ± 0.12 | 2.28 ± 0.096 |
| ESGIKPYFEQKIQETEL [RPT6] | 2.93 ± 0.13 | 3.24 ± 0.14 | 2.64 ± 0.061 | 3.23 ± 0.094 |
| KQHAVLMLGSVNLPGGI [RRP4] | 2 ± 0.049 | 2.17 ± 0.058 | 1.94 ± 0.081 | 1.66 ± 0.037 |
| SKVGSADTGRDDTKETV [RPN11] | 3.14 ± 0.13 | 3.36 ± 0.089 | 3.59 ± 0.068 | 3.04 ± 0.12 |
| HVTQEDFELAVGKVMNK [RPT6] | 2.83 ± 0.17 | 2.82 ± 0.13 | 2.62 ± 0.13 | 2.69 ± 0.15 |
| LIQQVPPGLDALVKPET [CDC53] | 3.02 ± 0.12 | 2.98 ± 0.13 | 2.83 ± 0.13 | 3.24 ± 0.14 |
| NFKDMSHVNKYGLIRGL [PRP8] | 2 ± 0.069 | 1.47 ± 0.067 | 2.19 ± 0.13 | 1.16 ± 0.032 |
| EELLDNCIETFVAEKTT [SRB6] | 2.43 ± 0.16 | – | – | – |
| IKVWTIKGQCLATLLGH [ASC1] | 2.22 ± 0.085 | 1.59 ± 0.099 | 1.69 ± 0.1 | 1.39 ± 0.057 |
